Target: TAG72 antigen (tumor associated glycoprotein-72)
Assay: method not stated; scFv affinity toward TAG72 antigen

## original humanized CC49 scFv (IDEC)
  Kd: 33 nM

Reference: US20250257110A1
